Data on one molecule can be found in patent US20190309079A1 (Regeneron, published 2019).

Experiment [1] has as its target T1, full length human LEPR (amino acids 1-1165 of P48357, Isoform B) on cells (human, UniProt P48357 22-1165).
T1 sequence: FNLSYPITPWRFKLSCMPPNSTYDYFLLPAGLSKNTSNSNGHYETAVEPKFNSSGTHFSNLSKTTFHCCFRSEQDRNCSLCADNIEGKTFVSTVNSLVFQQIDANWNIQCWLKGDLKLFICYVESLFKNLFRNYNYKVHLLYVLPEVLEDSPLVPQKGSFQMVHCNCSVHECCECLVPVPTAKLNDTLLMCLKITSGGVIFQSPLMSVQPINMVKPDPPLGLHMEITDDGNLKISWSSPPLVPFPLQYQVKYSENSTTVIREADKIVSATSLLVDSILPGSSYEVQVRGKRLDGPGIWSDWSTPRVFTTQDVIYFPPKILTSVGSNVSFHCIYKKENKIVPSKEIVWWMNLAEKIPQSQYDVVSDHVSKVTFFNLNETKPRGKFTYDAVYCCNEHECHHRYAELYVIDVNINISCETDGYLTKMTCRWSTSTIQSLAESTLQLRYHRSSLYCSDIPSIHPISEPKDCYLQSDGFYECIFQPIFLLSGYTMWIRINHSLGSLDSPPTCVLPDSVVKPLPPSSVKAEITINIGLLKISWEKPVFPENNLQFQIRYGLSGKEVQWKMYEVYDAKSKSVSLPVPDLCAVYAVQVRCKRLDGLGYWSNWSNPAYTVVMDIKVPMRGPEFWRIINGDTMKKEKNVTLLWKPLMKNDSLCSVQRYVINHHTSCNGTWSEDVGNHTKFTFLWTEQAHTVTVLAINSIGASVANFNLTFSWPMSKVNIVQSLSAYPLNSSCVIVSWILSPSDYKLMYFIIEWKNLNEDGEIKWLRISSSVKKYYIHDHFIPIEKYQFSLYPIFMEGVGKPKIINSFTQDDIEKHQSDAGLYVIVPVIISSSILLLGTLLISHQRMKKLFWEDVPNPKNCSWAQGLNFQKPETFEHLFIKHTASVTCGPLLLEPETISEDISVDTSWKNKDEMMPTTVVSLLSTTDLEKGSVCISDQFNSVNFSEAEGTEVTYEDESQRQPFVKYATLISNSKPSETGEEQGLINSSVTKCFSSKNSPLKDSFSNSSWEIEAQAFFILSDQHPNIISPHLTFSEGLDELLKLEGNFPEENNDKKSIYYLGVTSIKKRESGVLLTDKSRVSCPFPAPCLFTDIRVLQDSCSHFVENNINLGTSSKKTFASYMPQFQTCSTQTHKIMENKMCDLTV
The experiment can be described thus: cell-based or functional assay.

In experiment [2] the target is mouse LEPR extracellular domain expressed with a C-terminal myc-myc-hexahistidine tag (mLEPR.mmh) (mouse, UniProt P48356 22-839). The experiment can be described thus: SPR, captured mAb, 25C and 37C. On the procedure: (§1) Equilibrium dissociation constants (KD values) for LEPR binding to purified anti-LEPR monoclonal antibodies were determined using a real-time surface plasmon resonance biosensor using a Biacore 4000 instrument. All binding studies were performed in 10 mM HEPES, 150 mM NaCl, 3 mM EDTA, and 0.05% v/v Surfactant Tween-20, pH 7.4 (HBS-ET) running buffer at 25° C. and 37° C. The Biacore sensor surface was first derivatized by amine coupling with a monoclonal mouse anti-human Fc antibody (GE, # BR-1008-39) to capture anti-LEPR monoclonal antibodies. […] Kinetic association (kₐ) and dissociation (kd) rate constants were determined by fitting the real-time binding sensorgrams to a 1:1 binding model with mass transport limitation using Scrubber 2.0c curve-fitting software. Binding dissociation equilibrium constants (KD) and dissociative half-lives (t½) were calculated from the kinetic rate constants as: […]
Background: Surface plasmon resonance follows binding to a sensor surface in real time, without labels.

Experiment [3] has as its target rat LEPR extracellular domain expressed with a C-terminal myc-myc-hexahistidine tag (rLEPR.mmh) (rat, UniProt Q62959 22-839). The experiment can be described thus: SPR, captured mAb, 25C and 37C. How it is done: as §1
For experiment [4], the target named is T2, extracellular domain of human LEPR (amino acids 22-839 of P48357, Isoform B) with N-terminal myc-myc tag, … (human, UniProt P48357 22-839, GPI anchor at the C-terminus).
T2 construct: also called HEK293/Mycx2-hLepR(Ecto)-GPI anchored cells
T2 sequence: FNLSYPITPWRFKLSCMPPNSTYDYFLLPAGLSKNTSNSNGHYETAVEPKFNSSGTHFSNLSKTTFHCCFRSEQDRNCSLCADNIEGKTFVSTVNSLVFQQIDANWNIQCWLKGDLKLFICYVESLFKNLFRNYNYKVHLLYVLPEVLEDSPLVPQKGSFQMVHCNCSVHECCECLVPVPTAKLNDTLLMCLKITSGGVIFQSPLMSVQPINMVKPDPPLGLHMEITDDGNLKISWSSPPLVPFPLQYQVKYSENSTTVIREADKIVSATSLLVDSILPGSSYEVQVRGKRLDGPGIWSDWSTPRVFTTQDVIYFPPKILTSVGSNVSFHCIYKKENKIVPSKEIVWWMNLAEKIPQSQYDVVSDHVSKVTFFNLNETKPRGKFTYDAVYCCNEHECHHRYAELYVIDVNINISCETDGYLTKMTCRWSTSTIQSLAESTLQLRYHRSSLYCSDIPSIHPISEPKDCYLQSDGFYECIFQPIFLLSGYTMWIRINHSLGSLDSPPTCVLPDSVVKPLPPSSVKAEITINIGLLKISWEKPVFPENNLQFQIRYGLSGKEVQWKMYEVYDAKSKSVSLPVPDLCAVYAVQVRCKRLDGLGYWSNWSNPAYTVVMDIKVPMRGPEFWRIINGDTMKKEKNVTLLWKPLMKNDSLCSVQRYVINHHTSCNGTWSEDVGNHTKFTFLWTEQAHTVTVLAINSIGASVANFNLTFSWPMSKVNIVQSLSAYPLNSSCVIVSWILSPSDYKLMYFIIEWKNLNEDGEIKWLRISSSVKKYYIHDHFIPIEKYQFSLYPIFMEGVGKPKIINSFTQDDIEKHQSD
The experiment can be described thus: FACS, 10 nM Ab, HEK293/hLEPR-GPI, no added Leptin. On the procedure:
For the FACS analysis, HEK293 parental cells and HEK293/hLEPR-GPI cells were dissociated and plated onto 96-well v-bottom plates at 5×10⁵ cells/well in PBS containing 2% FBS (FACS buffer). […] Cells were subsequently fixed using BD CytoFix™ (Becton Dickinson, #554655), filtered, and analyzed on a HyperCyt Flow Cytometer (Beckman Coulter). Unstained and secondary antibody alone controls were also tested for all cell lines. The results were analyzed using ForeCyt (IntelliCyt) and FlowJo version 10 software to determine the geometric means of fluorescence for viable cells. The geometric mean of fluorescence for each sample was then normalized to the geometric mean of unstained cells to obtain relative binding per condition referred to as “binding ratios”, and these binding ratios were recorded for each antibody tested.
Background: In flow cytometry, cells or beads pass a laser one at a time.

mouse LEPR extracellular domain expressed with a C-terminal myc-myc-hexahistidine tag (mLEPR.mmh), sequence (P48356 other isoform, or with tags, fused parts or gaps): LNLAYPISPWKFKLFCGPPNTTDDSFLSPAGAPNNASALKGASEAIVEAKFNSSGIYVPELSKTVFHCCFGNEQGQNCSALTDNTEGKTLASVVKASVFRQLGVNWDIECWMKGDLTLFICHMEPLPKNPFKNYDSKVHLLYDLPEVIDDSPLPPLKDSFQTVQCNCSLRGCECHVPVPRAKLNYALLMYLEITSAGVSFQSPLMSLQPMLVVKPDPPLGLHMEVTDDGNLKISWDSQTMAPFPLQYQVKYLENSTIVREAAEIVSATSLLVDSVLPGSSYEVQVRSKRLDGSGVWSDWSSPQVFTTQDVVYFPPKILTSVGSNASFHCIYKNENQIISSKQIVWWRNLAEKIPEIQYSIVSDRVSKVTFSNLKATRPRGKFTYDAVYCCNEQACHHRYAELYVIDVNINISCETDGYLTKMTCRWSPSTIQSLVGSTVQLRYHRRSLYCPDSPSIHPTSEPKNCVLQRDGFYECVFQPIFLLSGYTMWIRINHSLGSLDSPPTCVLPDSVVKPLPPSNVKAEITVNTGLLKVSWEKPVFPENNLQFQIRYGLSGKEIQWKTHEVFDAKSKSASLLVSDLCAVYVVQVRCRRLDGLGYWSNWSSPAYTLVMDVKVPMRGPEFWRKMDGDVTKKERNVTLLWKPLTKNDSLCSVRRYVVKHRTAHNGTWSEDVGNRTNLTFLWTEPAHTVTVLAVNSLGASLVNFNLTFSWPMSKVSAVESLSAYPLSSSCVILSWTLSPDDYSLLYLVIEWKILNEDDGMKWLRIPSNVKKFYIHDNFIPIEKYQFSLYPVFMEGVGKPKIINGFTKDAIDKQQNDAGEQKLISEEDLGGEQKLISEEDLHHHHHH
rat LEPR extracellular domain expressed with a C-terminal myc-myc-hexahistidine tag (rLEPR.mmh), sequence (Q62959 other isoform, or with tags, fused parts or gaps): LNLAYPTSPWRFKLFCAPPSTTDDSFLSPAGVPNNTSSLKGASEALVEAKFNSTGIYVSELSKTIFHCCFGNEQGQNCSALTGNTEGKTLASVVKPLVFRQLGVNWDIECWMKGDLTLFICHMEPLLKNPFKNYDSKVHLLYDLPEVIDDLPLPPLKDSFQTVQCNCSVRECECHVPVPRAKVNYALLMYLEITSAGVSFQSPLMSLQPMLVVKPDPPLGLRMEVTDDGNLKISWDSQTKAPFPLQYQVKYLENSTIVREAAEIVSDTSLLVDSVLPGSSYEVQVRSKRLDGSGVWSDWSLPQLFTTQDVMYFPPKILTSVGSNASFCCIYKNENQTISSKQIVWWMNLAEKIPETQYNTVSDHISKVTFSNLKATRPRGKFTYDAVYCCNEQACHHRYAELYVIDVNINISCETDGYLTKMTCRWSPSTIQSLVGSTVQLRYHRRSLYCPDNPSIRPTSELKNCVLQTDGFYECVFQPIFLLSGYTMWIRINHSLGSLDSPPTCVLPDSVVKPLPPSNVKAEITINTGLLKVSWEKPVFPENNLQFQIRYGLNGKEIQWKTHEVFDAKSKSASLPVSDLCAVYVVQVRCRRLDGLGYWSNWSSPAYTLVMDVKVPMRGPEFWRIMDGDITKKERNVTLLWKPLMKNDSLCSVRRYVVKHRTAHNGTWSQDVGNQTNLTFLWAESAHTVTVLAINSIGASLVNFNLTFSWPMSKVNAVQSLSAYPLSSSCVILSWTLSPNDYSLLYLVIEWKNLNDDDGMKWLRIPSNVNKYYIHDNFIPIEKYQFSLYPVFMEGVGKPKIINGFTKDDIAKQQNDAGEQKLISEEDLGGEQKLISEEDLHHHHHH

B1: H4H16679P2 (antibody, V domains shown)
VH: QVQLVESGGGVVQPGRSLRLSCTASGFTFSSYAMYWVRQAPGKGLEWVSVIYYDGSYKYYADSVKGRFTISRDNSKNTLYLQMDSLRAEDTAVYYCASYNWNYWYFDFWGRGTLVTVSS
VL: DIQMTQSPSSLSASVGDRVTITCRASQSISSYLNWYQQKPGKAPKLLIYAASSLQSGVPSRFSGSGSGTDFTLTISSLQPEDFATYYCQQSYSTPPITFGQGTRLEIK
Take B1: in experiment [1], the “% activation; IMR-32/LEPR with 200 pM human Leptin” value turned out to be 88%, the “% activation; IMR-32/LEPR without human Leptin” value was 65%, the “EC50 (M); IMR-32/LEPR with 200 pM human Leptin” value is 7.37e-11 M and the “EC50 (M); IMR-32/LEPR without human Leptin (STAT3-Luc reporter)” value is 8.62e-11 M. The binding result in experiment [2] is reported as “no binding (tested: 100 nM)”. In addition, in experiment [3], the binding result is on record as “no binding (tested: 100 nM)”. Besides, the “Binding Ratio (normalized to unstained)” value in experiment [4] was found to be 2060 fold.
